The target in one assay is T1, GST-MPK6 (Arabidopsis, UniProt Q39026 1-395).
T1 construct: MPK6, Arabidopsis, full length, in PGEX5X-1; also called GST-tagged MPK6
Description: pull-down; GST or GST-MPK3/MPK6 immobilised on glutathione beads, 4 μg His-tagged ABI4, 4 °C for 4 h; washed with 50 mM Tris-HCl pH 7.4, 100 mM NaCl, 1 mM EDTA, 0.5% Nonidet P-40; anti-His immunoblot. The note with it: both partners purified.

The target in the next assay is T2, GST-MPK3 (Arabidopsis, UniProt Q39023 1-370).
T2 construct: MPK3, Arabidopsis, full length, in PGEX5X-1; also called GST-tagged MPK3
T2 sequence (looked up): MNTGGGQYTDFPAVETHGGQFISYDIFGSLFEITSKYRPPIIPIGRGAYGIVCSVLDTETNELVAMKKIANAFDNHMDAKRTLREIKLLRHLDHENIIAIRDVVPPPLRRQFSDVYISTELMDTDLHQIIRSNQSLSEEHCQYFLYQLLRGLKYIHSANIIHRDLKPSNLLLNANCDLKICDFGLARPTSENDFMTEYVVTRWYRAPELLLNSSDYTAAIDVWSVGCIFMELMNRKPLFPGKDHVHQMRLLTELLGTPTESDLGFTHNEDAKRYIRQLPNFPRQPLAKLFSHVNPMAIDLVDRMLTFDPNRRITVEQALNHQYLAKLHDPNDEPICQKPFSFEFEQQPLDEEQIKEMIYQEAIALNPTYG
Described as above. The conditions noted are these: both partners purified.

The values below come from PMC4942575, “Plastid-nucleus communication involves calcium-modulated MAPK signalling” (Nature Communications, 2016).

T1 sequence (Q39026 whole entry): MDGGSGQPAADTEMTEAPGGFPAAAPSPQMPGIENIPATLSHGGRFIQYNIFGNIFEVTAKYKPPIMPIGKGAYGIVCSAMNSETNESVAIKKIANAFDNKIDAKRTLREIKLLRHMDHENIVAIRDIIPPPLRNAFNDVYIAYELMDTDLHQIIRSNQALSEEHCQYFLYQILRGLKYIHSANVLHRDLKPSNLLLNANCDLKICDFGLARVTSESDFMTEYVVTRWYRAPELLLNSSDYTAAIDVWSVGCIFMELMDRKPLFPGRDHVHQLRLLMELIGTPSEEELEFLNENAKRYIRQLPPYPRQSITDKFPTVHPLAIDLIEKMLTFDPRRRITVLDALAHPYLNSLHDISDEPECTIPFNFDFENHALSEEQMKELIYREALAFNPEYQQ

B1: His-tagged ABI4 (natural protein)
chain: not shown
notes: ABI4, Arabidopsis; the ABI4 cDNA was inserted into the pCold vector; The pull-down methods name only 'recombinant His-tagged ABI4 protein'; also called recombinant ABI4
For the molecule B1, the binding result in the assay with GST-MPK6 and with GST-MPK3 was “binds” in each case.
